Source: patent US20250297009A1 (BIOTHEUS, published 2025)

Experiments:
[1] = target: T1, human PD-1 (Uniprot: Q15116) on cells (human, UniProt Q15116 25-288); test: flow cytometry on activated human primary T cells, fluorescent secondary antibody
T1 construct: whole, on cells; The cell type is named under assay or readout; also called CHO-huPD-1 cells; CHO cells overexpressing human PD-1

[2] = target: T1, human PD-1 (Uniprot: Q15116) on cells; test: flow cytometry on CHO-S cells overexpressing human PD-1
Source text: (§1) By transfecting human PD-1 (Uniprot: Q15116), cynomolgus monkey PD-1 (Uniprot: BOLAJ3) cDNA pCHO1.0 vector (purchased from Invitrogen) into CHO-S cellsand following with pressure screening, CHO-S cells overexpressing human PD-1 (CHO-huPD-1 cells) and CHO-S cells overexpressing cynomolgus monkey PD-1 (CHO-cynoPD-1 cells) were produced. The overexpressed cells after expansion culture were adjusted to the appropriate cell density and added to a 96-well flow plate, centrifuged and then added with gradiently diluted samples, and incubated at 4° C. for 30 minutes. Washing was performed twice with PBS, fluorescent secondary antibody correspondingly diluted to the appropriate concentration was added, incubated at 4° C. for 30 minutes, and washed twice with PBS. The cells were resuspended in PBS, and detected on a CytoFlex flow cytometer, and the corresponding MFI was calculated. Graphpad software was used for graphical analysis to obtain EC₅₀ values.

[3] = target: T2, Human PD-1-his protein (human PD-1 extracellular domain with his tag) (human, UniProt Q15116 25-170); test: BLI (ForteBio), antibody loaded on AHQ sensor, 100 nM PD-1-his in solution, monovalent, 1:1 model
T2 construct: also called PD-1-his antigen; not shown: his tag
T2 sequence (Q15116 25-170): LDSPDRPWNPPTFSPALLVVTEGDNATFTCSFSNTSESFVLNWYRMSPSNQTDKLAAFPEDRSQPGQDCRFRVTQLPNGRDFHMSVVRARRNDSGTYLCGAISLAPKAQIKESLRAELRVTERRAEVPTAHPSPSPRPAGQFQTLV
Description: (§2) The binding dissociation constant (KD) values of the antibody obtained in Example 1 binding to human and cynomolgus monkey PD-1 were determined by biofilm optical interference technology (ForteBio). Fortebio affinity determination was carried out according to the existing method (Este, P et al. High throughput solution-based measurement of antibody-antigen affinity and epitope binning. Mabs, 2013.5(2): p. 270-8), and the extracellular amino acid sequences of human and cynomolgus monkey PD-1 were as set forth in SEQ ID NO:20 and 21, respectively.
(§3) The sensor loaded with antibody was exposed to 100 nM PD-1-his antigen until the plateau phase, and then the sensor was transferred to the assay buffer for at least 2 minutes for dissociation rate measurement. The kinetic analysis was performed using a 1:1 binding model.

[4] = target: T3, Cynomolgus monkey PD-1-his protein (cynomolgus monkey PD-1 extracellular domain with his tag) (cynomolgus monkey, UniProt Q15116 25-165 (human entry)); test: as above
T3 construct: also called Cyno PD-1-his; not shown: his tag
T3 chain: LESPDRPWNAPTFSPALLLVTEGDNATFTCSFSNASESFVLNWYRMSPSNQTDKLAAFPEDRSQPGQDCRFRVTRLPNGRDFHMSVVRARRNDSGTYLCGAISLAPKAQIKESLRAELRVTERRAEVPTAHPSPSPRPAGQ
Description: as §2, §3

[5] = target: T4, cynomolgus monkey PD-1 (Uniprot: BOLAJ3 as printed) on CHO-S cells (cynomolgus monkey); test: flow cytometry on CHO-S cells overexpressing cynomolgus monkey PD-1
T4 construct: whole, on cells; also called CHO-cynoPD-1 cells; CHO cells overexpressing cynomolgus monkey PD-1
Source text: as §1

[6] = target: T1, human PD-1 (Uniprot: Q15116) on cells; test: flow cytometry, competition with bio-human PD-L1-Fc (0.5 µg/mL) on CHO-huPD-1 cells
[7] = target: T4, cynomolgus monkey PD-1 (Uniprot: BOLAJ3 …); test: flow cytometry on CHO cells overexpressing cynomolgus monkey PD-1 according to legend paragraph 157 and Example 11 (the title on the sheet prints CHO-huPD-1), fluorescent secondary antibody
[8] = target: T1, human PD-1 (Uniprot: Q15116) on cells; test: flow cytometry on CHO cells overexpressing human PD-1, fluorescent secondary antibody
[9] = target: T1, human PD-1 (Uniprot: Q15116) on cells; test: flow cytometry blocking assay on CHO cells overexpressing human PD-1; blocked ligand: bio-human PD-L1-Fc, SA-PE detection

T1 sequence (Q15116 25-288, one chain of several): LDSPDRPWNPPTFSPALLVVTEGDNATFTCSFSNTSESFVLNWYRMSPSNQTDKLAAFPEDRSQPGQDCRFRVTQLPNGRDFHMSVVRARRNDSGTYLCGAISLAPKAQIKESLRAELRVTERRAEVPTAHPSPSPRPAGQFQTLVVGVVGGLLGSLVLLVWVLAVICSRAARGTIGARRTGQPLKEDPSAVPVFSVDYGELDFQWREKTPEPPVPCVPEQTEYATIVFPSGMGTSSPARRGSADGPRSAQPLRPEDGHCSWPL

B1: anti-PD-1 antibody ADI-54872 (antibody, human IgG1, kappa, L234A L235A, V domains shown)
VH: QVQLVQSGAEVKKPGASVKVSCKASGYTFTEYYIYWVRQAPGQGLEWIGGINPSNGGTNFNEKFKPRVTMTVDTSTSTAYMELSSLRSEDTAVYYCTVRDFRFDKGFKYWGQGTLVTVSS
VL: EIVLTQSPATLSLSPGERATLSCRASKSVSTSGLNYVHWYQRKPGQAPRLLIYLGSYLDSGVPARFSGSGSGTDFTLTISSLEPEDFAVYYCQQSWELPLTFGGGTKVEIKR
notes: Full-length IgG (human IgG1 LALA constant region), expressed in HEK293 and purified on Protein A
For B1, the “EC50 (read off the curve)” value [1] was roughly 1 nM, the EC50 [2] was 3.79 nM and the Kd [3] was 0.453 nM. The Kd [4] was 0.201 nM, the EC50 [5] was 4.32 nM and the IC50 [6] was 3.74 nM. The “EC50 (read off the curve)” value [7] was roughly 6 nM, the “EC50 (read off the curve)” value [8] was roughly 7 nM and the “IC50 (read off the curve)” value [9] was roughly 7 nM.
